Experimental data: patent publication US9683238, “Vascular endothelial growth factor-binding aptamers” (National University Corporation Tokyo University of …)

Experiments:
[1] = biological target: T1, VEGF165 (vascular endothelial growth factor 165) (Homo sapiens, UniProt P15692-4 P15692-4:27-191); experiment: SPR; VEGF immobilized on CM5; TBS (10 mM Tris-HCl, 100 mM NaCl, 5 mM KCl, pH 7.4), 20 C; conditions: tags: R&D Systems, expressed in Sf21 insect cells; chain copies: 2 (inferred, homodimer)
[2] = biological target: T1, VEGF165 (vascular endothelial growth …); experiment: SPR; VEGF immobilized on CM5; TBS with 5 mM KCl, pH 7.4, 20 C; conditions: tags: R&D Systems, expressed in Sf21 insect cells, chain copies: 2 (inferred, homodimer)
Protocol: (§1) The capacity of each oligonucleotide to bind to VEGF was evaluated using Biacore T200 (GE Healthcare Japan, Japan) by measuring SPR on a CM5 sensor chip. VEGF was dissolved in 10 mM acetate buffer (pH 6.0), and VEGF (about 1000 RU) was covalently bound to the CM5 sensor chip using an amine coupling kit. A non-labeled oligonucleotide (1 µM) was dissolved in Tris-buffered saline (TBS: 10 mM Tris-HCl, 100 mM NaCl, 5 mM KCl; pH 7.4), and the resulting solution was heated at 95° C. for 5 minutes, followed by allowing the solution to cool slowly. Under these conditions, each oligonucleotide is folded to form its specific secondary structure. Various concentrations of the oligonucleotide diluted with TBS was injected at a flow rate of 20 µl/minute at 20° C. onto the CM5 chip on which VEGF was immobilized. Binding between the immobilized VEGF and the oligonucleotide was monitored. By injecting NaCl (1 M), the CM5 chip was regenerated. Using Biacore evaluation software, the association rate and the dissociation rate were approximated to calculate the K_d value.

[3] = biological target: T1, VEGF165 (vascular endothelial growth …); experiment: SPR; no binding capacity; TBS, 20 C; conditions: tags: R&D Systems, expressed in Sf21 insect cells; chain copies: 2 (inferred, homodimer); G4 predicted
Protocol: as §1

T1 sequence (P15692 other isoform, or with tags, fused parts or gaps): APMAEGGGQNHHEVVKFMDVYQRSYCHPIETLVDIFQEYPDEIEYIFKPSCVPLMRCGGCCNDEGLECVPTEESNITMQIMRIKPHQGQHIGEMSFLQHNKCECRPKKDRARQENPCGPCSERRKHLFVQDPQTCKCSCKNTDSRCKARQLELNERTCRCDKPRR

Row | Binder | binding result [3] | further results
1 | 3R02 bivalent (ssDNA) DNA: TGTGGGGGTGGACTGGGTGGGTACCTTTTTTTTTTTGTGGGGGTGGACTGGGTGGGTACC | – | Kd [1]: 0.03 nM
2 | TGTGGGGGTGGACTGGGTGGGTACC (ssDNA) [3R02 (3R#02)] | – | Kd [2]: 0.3 nM
3 | TGTGCGGGGGGTGGGGGTGGTTCCC (ssDNA) [3R#04] | no binding | –
4 | TGTGGGGGGGGTGGGGGTGGACCGC (ssDNA) [3R#06] | no binding | –
5 | TGTGCGGGTGGCCGGGGTGGCCTGC (ssDNA) [3R#07] | no binding | –
6 | TGTGGGGCTGGGAGGTCGGGCCTGC (ssDNA) [3R#10] | no binding | –
7 | TGTGGGGATGGATGGGCCGGGCTGC (ssDNA) [3R08 (3R#08)] | – | Kd ([2]; G4 predicted): 1.5 nM
8 | TGTGGGGGTGGACGGGCCGAGTACG (ssDNA) [3R03 (3R#03)] | – | Kd ([2]; G4 predicted): 1.7 nM
9 | TGTGGGGGTGGTTGGGCGGGGCTGC (ssDNA) [3R09 (3R#09)] | – | Kd ([2]; G4 predicted): 2.4 nM
10 | TGTGGGGGTGGACGGGCCGGGTAGA (ssDNA) [VEap121] | – | Kd ([2]; G4): 4.7 nM
11 | TGTGGGGGAGGACGGGCGGGGATGC (ssDNA) [3R#01] | – | Kd ([2]; G4 predicted): 8.8 nM
12 | TGTGGGGTTGGACGGACCGGGTAGG (ssDNA) [2R#08] | no binding | –
13 | TGTGGGGTTGGACGGGCCGTGTAGA (ssDNA) [2R#10] | no binding | –
14 | TGTGGGGGTGCGCGGGCCGGGCAGG (ssDNA) [2R#11] | no binding | –
